Assays:
Assay type in all cases: biochemical
[1] = KARI assay of purified S. exigua KARI and variants with NADH (Examples 6-9); details: for Ratio NADH/NADPH (U/mg): specific activity ratio
Experimental: (§1) S. exigua KARI activity or activities of its variants were assayed kinetically by monitoring the decrease in NADPH or NADH concentration by measuring the change in absorbance at 340 nm. An assay buffer was prepared containing 100 mM potassium phosphate pH 7.0, 1 mM DTT, 2.5 mM (S)-2-acetolactate, and 10 mM MgCl2 (final concentrations in the 1-mL assay, accounting for dilution with enzyme and cofactor). Fifty μL purified enzyme and 930 μL of the assay buffer were placed into a 1-mL cuvette. The reaction was initiated by addition of 20 μL NADPH or NADH (200 μM final concentration) for a general activity assay. Michaelis-Menten constants of the cofactors were determined with varying concentrations of NADPH (200-12 μM final) or NADH (200-6 μM final).

[2] = KARI assay of purified S. exigua KARI and variants with NADPH (Examples 6-9)
Experimental: as §1

[3] = High-throughput screening of KARI variant libraries in E. coli lysates
Experimental: For growth and expression of KARI variants in deep well plates, sterile toothpicks were used to pick single colonies into shallow 96-well plates filled with 300 μL LBamp. Fifty μL of these overnight cultures were used to inoculate deep well plates filled with 600 μL of LBamp per well. The plates were grown at 37° C. with shaking at 250 rpm for 3 h. One hour before induction with IPTG (final concentration 0.5 mM), the temperature of the incubator was reduced to 25° C. After induction, growth and expression continued for 20 h at 25° C. and 250 rpm. Cells were harvested at 5,300 g and 4° C. and then stored at −20=C. The plates always contained four wild-type or parent S. exigua KARI colonies, three BL21(DE3) colonies carrying pET22b(+) to control for background reactions in cell lysates, and one well that contained only media to make sure the plates were free of contaminations.
Frozen cell pellets were thawed at room temperature for 20 min and then 200 μL of lysis buffer (100 mM Kpi, 750 mg/L lysozyme, 10 mg/L DNaseI, pH 7) were added. Plates were vortexed to resuspend the cell pellets. After a 60 min incubation phase at 37° C. and shaking at 130 rpm, plates were centrifuged at 5,300 g and 4° C. for 10 min. […] The depletion of NAD(P)H was monitored at 340 nm in a plate reader (TECAN) over 200 s.

B1: Se1_KARI^4E10: S. exigua KARI variant L57V, R58P, S61C (protein, UniProt D0WGK0 1-342, looked up, variant L57V R58P S61C)
Ketol-acid reductoisomerase …: MSVKTKEKEMAVTILYEQDVDPKVIQGLKVGIIGYGSQGHAHALNLMDSGVDVRVGVPEGCSSWKTAEEAGLKVTDMDTAAEEADVIMVLVPDEIQPKVYQEHIAAHLKAGNTLAFAHGFNIHYGYIVPPEDVNVIMCAPKGPGHIVRRQFTEGSGVPDLACVQQDATGNAWDIVLSYCWGVGGARSGIIKATFAEETEEDLFGEQAVLCGGLVELVKAGFETLTEAGYPPELAYFECYHEMKMIVDLMYESGIHFMNYSISNTAEYGEYYAGPKVINEQSREAMKEILKRIQDGSFAQEFVDDCNNGHKRLLEQREAINTHPIETTGAQIRSMFSWIKKED
For B1, the “kcat NADH” value [1] was 0.90 s⁻¹, the “kcat/Km ratio NADH/NADPH (cofactor specificity)” value [1] was 0.1 and the “U/mg NADH (specific activity)” value ([1]; cofactor NADH) was 0.36 U/mg. For the same molecule, the Km ([1]; read-out: Km for cofactor NADH) was 49 µM, the “Ratio NADH/NADPH (U/mg)” value [1] was 1.0 and the “Ratio NADH/NADPH (U/mg)” value ([1]; listed as 4E10) was 1. The “kcat NADPH” value [2] was 0.90 s⁻¹, the “U/mg NADPH (specific activity)” value ([2]; cofactor NADPH) was 0.36 U/mg and the Km ([2]; read-out: Km for cofactor NADPH) was 4 µM. For the same molecule, the “NADH/NADPH activity ratio in the screen/rescreen relative to parent” value [3] was “more than doubled”.
